Patent US20180155451A1 (published 2018)

How the values were obtained:
[1] = molecular target: T1, FcγRIa extracellular domain with C-terminal His tag (human, UniProt P12314 16-292); test: SPR (Biacore), antibody captured on antigen peptide chip, FcγR as analyte; relative binding
T1 construct: extracellular domain; soluble receptor expressed in FreeStyle293 cells, used as analyte in Biacore; also called FcgRI; 1a; not shown: His tag attached to the C terminus

[2] = molecular target: T2, FcγRIIb extracellular domain with C-terminal His tag (human, UniProt P31994 43-217); test: as above
T2 construct: extracellular domain; soluble receptor expressed in FreeStyle293 cells, used as analyte in Biacore; also called FcgRIIb; 2b; not shown: His tag attached to the C terminus
T2 sequence (looked up): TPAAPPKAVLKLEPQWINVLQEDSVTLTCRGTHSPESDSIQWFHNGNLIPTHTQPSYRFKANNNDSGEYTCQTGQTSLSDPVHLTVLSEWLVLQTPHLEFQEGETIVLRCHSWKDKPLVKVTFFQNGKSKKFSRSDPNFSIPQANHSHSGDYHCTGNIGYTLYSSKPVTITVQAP

T1 sequence (P12314 16-292): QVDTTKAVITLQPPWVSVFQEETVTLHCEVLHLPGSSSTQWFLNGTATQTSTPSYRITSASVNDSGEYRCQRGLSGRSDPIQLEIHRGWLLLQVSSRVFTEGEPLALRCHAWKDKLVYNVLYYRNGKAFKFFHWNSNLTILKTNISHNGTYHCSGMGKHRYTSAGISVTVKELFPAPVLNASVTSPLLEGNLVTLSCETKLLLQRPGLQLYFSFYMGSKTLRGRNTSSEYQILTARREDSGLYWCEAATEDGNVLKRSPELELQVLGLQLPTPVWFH

B1: GpH7-A5/GpH7-B3 variant P271_06M/GpL16-k0 (antibody, human IgG1, kappa)
heavy 1: not shown
heavy 2: not shown
light: DIVMTQSPLSLPVTPGEPASISCQASESLVHSNRNTYLHWYLQKPGQSPQLLIYKVSNRFSGVPDRFSGSGSGTDFTLKISRVEAEDVGVYYCSQNTHVPPTFGQGTKVEIERTVAAPSVFIFPPSDEQLKSGTASVVCLLNNFYPREAKVQWKVDNALQSGNSQESVTEQDSKDSTYSLSSTLTLSKADYEKHKVYACEVTHQGLSSPVTKSFNRGEC
notes: heterodimerized anti-glypican-3 IgG1; alteration in the GpH7-B3 chain only; also called He Ab
B1 was tested, and the He/Con_1a [1] was 102 % of control GpH7-A5/GpH7-B3/GpL16-k0 (=100) and the He/Con_2b [2] was 77.5 % of control GpH7-A5/GpH7-B3/GpL16-k0 (=100).

B2: GpH7-A5/GpH7-B3 variant Q295_02A/GpL16-k0 (antibody, human IgG1, kappa)
heavy 1: not shown
heavy 2: not shown
light: DIVMTQSPLSLPVTPGEPASISCQASESLVHSNRNTYLHWYLQKPGQSPQLLIYKVSNRFSGVPDRFSGSGSGTDFTLKISRVEAEDVGVYYCSQNTHVPPTFGQGTKVEIERTVAAPSVFIFPPSDEQLKSGTASVVCLLNNFYPREAKVQWKVDNALQSGNSQESVTEQDSKDSTYSLSSTLTLSKADYEKHKVYACEVTHQGLSSPVTKSFNRGEC
notes: as for B1
With B2 the He/Con_1a [1] was 104 % of control GpH7-A5/GpH7-B3/GpL16-k0 (=100) and the He/Con_2b [2] was 79.7 % of control GpH7-A5/GpH7-B3/GpL16-k0 (=100).

B3: GpH7-A5/GpH7-B3 variant Q295_04F/GpL16-k0 (antibody, human IgG1, kappa)
heavy 1: not shown
heavy 2: not shown
light: DIVMTQSPLSLPVTPGEPASISCQASESLVHSNRNTYLHWYLQKPGQSPQLLIYKVSNRFSGVPDRFSGSGSGTDFTLKISRVEAEDVGVYYCSQNTHVPPTFGQGTKVEIERTVAAPSVFIFPPSDEQLKSGTASVVCLLNNFYPREAKVQWKVDNALQSGNSQESVTEQDSKDSTYSLSSTLTLSKADYEKHKVYACEVTHQGLSSPVTKSFNRGEC
notes: as for B1
B3 was tested, and the He/Con_1a [1] was 102 % of control GpH7-A5/GpH7-B3/GpL16-k0 (=100) and the He/Con_2b [2] was 64.7 % of control GpH7-A5/GpH7-B3/GpL16-k0 (=100).

B4: GpH7-A5/GpH7-B3 variant Q295_05P/GpL16-k0 (antibody, human IgG1, kappa)
heavy 1: not shown
heavy 2: not shown
light: DIVMTQSPLSLPVTPGEPASISCQASESLVHSNRNTYLHWYLQKPGQSPQLLIYKVSNRFSGVPDRFSGSGSGTDFTLKISRVEAEDVGVYYCSQNTHVPPTFGQGTKVEIERTVAAPSVFIFPPSDEQLKSGTASVVCLLNNFYPREAKVQWKVDNALQSGNSQESVTEQDSKDSTYSLSSTLTLSKADYEKHKVYACEVTHQGLSSPVTKSFNRGEC
notes: as for B1
For B4, the He/Con_1a [1] was 103 % of control GpH7-A5/GpH7-B3/GpL16-k0 (=100) and the He/Con_2b [2] was 67.5 % of control GpH7-A5/GpH7-B3/GpL16-k0 (=100).

B5: GpH7-A5/GpH7-B3 variant Q295_13S/GpL16-k0 (antibody, human IgG1, kappa)
heavy 1: not shown
heavy 2: not shown
light: DIVMTQSPLSLPVTPGEPASISCQASESLVHSNRNTYLHWYLQKPGQSPQLLIYKVSNRFSGVPDRFSGSGSGTDFTLKISRVEAEDVGVYYCSQNTHVPPTFGQGTKVEIERTVAAPSVFIFPPSDEQLKSGTASVVCLLNNFYPREAKVQWKVDNALQSGNSQESVTEQDSKDSTYSLSSTLTLSKADYEKHKVYACEVTHQGLSSPVTKSFNRGEC
notes: as for B1
B5 was tested, and the He/Con_1a [1] was 102 % of control GpH7-A5/GpH7-B3/GpL16-k0 (=100) and the He/Con_2b [2] was 56.9 % of control GpH7-A5/GpH7-B3/GpL16-k0 (=100).

B6: GpH7-A5/GpH7-B3 variant Q295_11K/GpL16-k0 (antibody, human IgG1, kappa)
heavy 1: not shown
heavy 2: not shown
light: DIVMTQSPLSLPVTPGEPASISCQASESLVHSNRNTYLHWYLQKPGQSPQLLIYKVSNRFSGVPDRFSGSGSGTDFTLKISRVEAEDVGVYYCSQNTHVPPTFGQGTKVEIERTVAAPSVFIFPPSDEQLKSGTASVVCLLNNFYPREAKVQWKVDNALQSGNSQESVTEQDSKDSTYSLSSTLTLSKADYEKHKVYACEVTHQGLSSPVTKSFNRGEC
notes: as for B1
For B6, the He/Con_1a [1] was 101 % of control GpH7-A5/GpH7-B3/GpL16-k0 (=100) and the He/Con_2b [2] was 70.4 % of control GpH7-A5/GpH7-B3/GpL16-k0 (=100).

B7: GpH7-A5/GpH7-B3 variant P271_04F/GpL16-k0 (antibody, human IgG1, kappa)
heavy 1: not shown
heavy 2: not shown
light: DIVMTQSPLSLPVTPGEPASISCQASESLVHSNRNTYLHWYLQKPGQSPQLLIYKVSNRFSGVPDRFSGSGSGTDFTLKISRVEAEDVGVYYCSQNTHVPPTFGQGTKVEIERTVAAPSVFIFPPSDEQLKSGTASVVCLLNNFYPREAKVQWKVDNALQSGNSQESVTEQDSKDSTYSLSSTLTLSKADYEKHKVYACEVTHQGLSSPVTKSFNRGEC
notes: as for B1
With B7 the He/Con_1a [1] was 102 % of control GpH7-A5/GpH7-B3/GpL16-k0 (=100) and the He/Con_2b [2] was 59.5 % of control GpH7-A5/GpH7-B3/GpL16-k0 (=100).

B8: GpH7-A5/GpH7-B3 variant Q295_14T/GpL16-k0 (antibody, human IgG1, kappa)
heavy 1: not shown
heavy 2: not shown
light: DIVMTQSPLSLPVTPGEPASISCQASESLVHSNRNTYLHWYLQKPGQSPQLLIYKVSNRFSGVPDRFSGSGSGTDFTLKISRVEAEDVGVYYCSQNTHVPPTFGQGTKVEIERTVAAPSVFIFPPSDEQLKSGTASVVCLLNNFYPREAKVQWKVDNALQSGNSQESVTEQDSKDSTYSLSSTLTLSKADYEKHKVYACEVTHQGLSSPVTKSFNRGEC
notes: as for B1
With B8 the He/Con_1a [1] was 103 % of control GpH7-A5/GpH7-B3/GpL16-k0 (=100) and the He/Con_2b [2] was 66.8 % of control GpH7-A5/GpH7-B3/GpL16-k0 (=100).

B9: GpH7-A5/GpH7-B3 variant P271_07I/GpL16-k0 (antibody, human IgG1, kappa)
heavy 1: not shown
heavy 2: not shown
light: DIVMTQSPLSLPVTPGEPASISCQASESLVHSNRNTYLHWYLQKPGQSPQLLIYKVSNRFSGVPDRFSGSGSGTDFTLKISRVEAEDVGVYYCSQNTHVPPTFGQGTKVEIERTVAAPSVFIFPPSDEQLKSGTASVVCLLNNFYPREAKVQWKVDNALQSGNSQESVTEQDSKDSTYSLSSTLTLSKADYEKHKVYACEVTHQGLSSPVTKSFNRGEC
notes: as for B1
In the case of B9, the He/Con_1a [1] is reported as 102 % of control GpH7-A5/GpH7-B3/GpL16-k0 (=100) and the He/Con_2b [2] is reported as 76.8 % of control GpH7-A5/GpH7-B3/GpL16-k0 (=100).

B10: GpH7-A5/GpH7-B3 variant Q295_12R/GpL16-k0 (antibody, human IgG1, kappa)
heavy 1: not shown
heavy 2: not shown
light: DIVMTQSPLSLPVTPGEPASISCQASESLVHSNRNTYLHWYLQKPGQSPQLLIYKVSNRFSGVPDRFSGSGSGTDFTLKISRVEAEDVGVYYCSQNTHVPPTFGQGTKVEIERTVAAPSVFIFPPSDEQLKSGTASVVCLLNNFYPREAKVQWKVDNALQSGNSQESVTEQDSKDSTYSLSSTLTLSKADYEKHKVYACEVTHQGLSSPVTKSFNRGEC
notes: as for B1
With B10 the He/Con_1a [1] was 100 % of control GpH7-A5/GpH7-B3/GpL16-k0 (=100) and the He/Con_2b [2] was 65.2 % of control GpH7-A5/GpH7-B3/GpL16-k0 (=100).
